From US5663064, “Ribozymes with RNA protein binding site” (University of Vermont) come the findings set out here.

Data set [1] addresses T1, R17 coat protein (R17cp) (bacteriophage R17, UniProt P69170 P69170:1-129). Kind of data set: filter; also gel shift; TMS or TMK buffer, 25 or 37 C; Kd said to agree with earlier studies but value not given. As to conditions: chain copies: 2; hairpin with bulged A. How it is done:
The reaction was initiated by adding R17 coat protein at various concentrations (0.01 nM to 1 μM). After at least 20 minutes of incubation at the desired temperature, 450 μl of the reaction mixture was filtered through pre-soaked nitrocellulose filter (Millipore-HAWP 024–0,45 μM). The amount of complex retained by the filter was determined by liquid scintillation counting. The amount of input RNA was determined by spotting a 20 μl aliquot of the reaction mixture on a filter. The fraction bound by the filter was plotted as a function of protein concentration. As previously described (Carey et al., supra; Schneider et al., 1992 J. Mol. Biol. 228, 862), the maximum amount of fraction complexed varied between 40 and 100% depending on the RNA preparation. Results were normalized to 100% of retention at saturation for purposes of calculations and to compare different experiments. […] Dissociation constant (Kd) values were then obtained from a non-linear least-square fit using sigmaplot software (Jandel Scientific). Standard error was calculated from the fit of the observed curve to the theoretical one (reported by the sigmaplot software).
A filter binding assay (Carey, et al., 1983 Biochemistry 22, 2601) is used to confirm the results from gel-shift assay described above. Referring to FIG. 9, the R17cp binds to HpR17 as well as it binds to its genuine binding site (R17bs). […]
(A gel shift assay detects complexes by their altered migration in electrophoresis.)

In data set [2] the target is T1, R17 coat protein (R17cp). Put plainly: filter; null mutant negative control; no specific complex in gel shift. As to conditions: chain copies: 2; hairpin. The protocol:
Association constants were determined by filter-binding assays (Carey et al., 1983 Biochemistry 22, 2601). Trace amount of labeled RNA (15–32 fmoles) was heat denatured and renatured in 500 μl of T.M.S buffer (40 mM Tris-HCl pH 8, 12 mM MgCl_2 and 2 mM spermidine) or TMK buffer (40 mM Tris-Acetate pH 8, 10 mM Mg.Acetate, 80 mM KCl). The reaction was initiated by adding R17 coat protein at various concentrations (0.01 nM to 1 μM). After at least 20 minutes of incubation at the desired temperature, 450 μl of the reaction mixture was filtered through pre-soaked nitrocellulose filter (Millipore-HAWP 024–0,45 μM). The amount of complex retained by the filter was determined by liquid scintillation counting. The amount of input RNA was determined by spotting a 20 μl aliquot of the reaction mixture on a filter. The fraction bound by the filter was plotted as a function of protein concentration. As previously described (Carey et al., supra; Schneider et al., 1992 J. Mol. Biol. 228, 862), the maximum amount of fraction complexed varied between 40 and 100% depending on the RNA preparation. Results were normalized to 100% of retention at saturation for purposes of calculations and to compare different experiments. […] Standard error was calculated from the fit of the observed curve to the theoretical one (reported by the sigmaplot software). […]

T1 sequence (P69170 whole entry, one chain of several): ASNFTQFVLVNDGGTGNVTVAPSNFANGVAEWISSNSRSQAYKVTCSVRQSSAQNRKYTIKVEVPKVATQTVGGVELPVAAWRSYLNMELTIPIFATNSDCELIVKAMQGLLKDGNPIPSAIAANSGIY

As for GAAACAUGAGGAUCACCCAUGUUU (ssRNA) [R17bs], the binding result in the data set with R17 coat protein (R17cp) [1] was “binds”.

On to GAAACAUGGGAUCACCCAUGUUU (ssRNA) [R17deltaA8], for which the binding result with R17 coat protein (R17cp) [2] is “no binding”.
